Laboratory results as given in publication PMC4022731 (PLoS Pathogens, 2014).

Target: Flag-tagged HCMV gp68 expressed by recombinant vaccinia virus (human cytomegalovirus, UniProt P16739)
Assay: co-IP
Settings: one partner purified

Chain of Flag-tagged HCMV gp68 expressed by recombinant vaccinia virus (P16739 24-345): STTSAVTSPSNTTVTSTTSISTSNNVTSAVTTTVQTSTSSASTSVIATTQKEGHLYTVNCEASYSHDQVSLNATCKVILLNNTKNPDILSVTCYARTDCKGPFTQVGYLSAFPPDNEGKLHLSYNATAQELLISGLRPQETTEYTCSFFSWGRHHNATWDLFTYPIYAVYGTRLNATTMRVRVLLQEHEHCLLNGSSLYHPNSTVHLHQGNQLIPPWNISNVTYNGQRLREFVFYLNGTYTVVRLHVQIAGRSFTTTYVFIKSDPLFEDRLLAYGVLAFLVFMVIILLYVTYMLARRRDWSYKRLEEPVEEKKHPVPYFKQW

B1: palivizumab (antibody, V domains shown)
VH: QVTLRESGPALVKPTQTLTLTCTFSGFSLSTSGMSVGWIRQPPGKALEWLADIWWDDKKDYNPSLKSRLTISKDTSKNQVVLKVTNMDPADTATYYCARSMITNWYFDVWGAGTTVTVSS
VL: DIQMTQSPSTLSASVGDRVTITCKCQLSVGYMHWYQQKPGKAPKLLIYDTSKLASGVPSRFSGSGSGTEFTLTISSLQPDDFATYYCFQGSGYPFTFGGGTKLEIK
notes: also called IgG1 isotype control antibody; source: bought: MedImmune
binding result: binds
